According to article PMC9482650, “Quantitative fragmentomics allow affinity mapping of interactomes” (Nature Communications, 2022):

What was measured:
Type in all cases: cell-based, human
SCRIB = test: Western blot in stable HEK293T cell lines; settings: for SCRIB relative protein level: source data of Figure 6 E, stable HEK293T cell line, IRES control line about 1
HEK293T cells [1] = test: RT-qPCR of mRNA levels in stable cell lines; settings: source data of Suppl Figure 4 B, stable HEK293T cell line; for DLG1 relative mRNA level / GFP relative mRNA level / MAGI1 relative mRNA level / RPLP0 relative mRNA level / SCRIB relative mRNA level / SNTB2 relative mRNA level / SNX27 relative mRNA level / SYNJ2BP relative mRNA level / TAX1BP3 relative mRNA level / p53 relative mRNA level: IRES control line about 1
Description: Cells were plated on 6-well plates. When they reached confluency, RNA was isolated by using Qiagen RNeasy Mini kit (#74104). On-column DNase digestion was done by using Qiagen RNase-Free DNase Set (#79254). 2 μg total RNA per sample was transcribed to cDNA by using SuperScript IV kit (Invitrogen, #18091050) with random hexamer primers (Thermo Fisher #SO142) according to standard protocol. For qPCR, primers were designed with the help of Primer Blast (NCBI NIH, https://www.ncbi.nlm.nih.gov/tools/primer-blast/) choosing primers which recognize all common alternative transcripts of the given gene (Supplementary Fig 4). qPCR was done by using QuantiTect SyberGreen (Qiagen, #204143) and LightCycler II equipment (Roche). Standard ΔΔCt method was used to determine relative quantity to GAPDH. For further analyses GraphPad Prism 7 software was used.

HEK293T cells [2] = test: Western blot of PDZ-proteins, p53 and E6AP in stable cell lines; settings: source data of Figure 6 E, stable HEK293T cell line, IRES control line about 1
HEK293T cells [3] = test: Label-free MS proteome of stable cell lines expressing HPV16 E6 or E6ΔPBM; settings: source data of Figure 6 D, IRES control line about 1; for p53 relative protein level: stable HEK293T cell line expressing the construct; for AHNAK relative protein level / LIN7C relative protein level / MPP6 relative protein level / SNX27 relative protein level: stable HEK293T cell line
How it was run: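 Confluent HEK293T lysates in HEPES-KOH pH 7.5, 1% Triton X-100 buffer, TCA-precipitated, reduced, alkylated, Lys-C then trypsin digested. nanoLC (90 min gradient) on LTQ-Orbitrap Elite, TOP20 CID data-dependent acquisition; SequestHT search of human SwissProt, 1% FDR. Label-free quantification by peptide XIC intensity, technical triplicates.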

HUWE1 = test: Label-free MS proteome of stable HEK293T cell lines; settings: stable HEK293T cells compared to control cell line, n = 3
Source text: Proteins were identified by database searching using SequestHT (Thermo Fisher Scientific) with Proteome Discoverer 2.4 software (PD2.4, Thermo Fisher Scientific) on human FASTA database downloaded from SwissProt (reviewed, release 2020_11_27, 20304 entries, https://www.uniprot.org/). Precursor and fragment mass tolerances were set at 7 ppm and 0.6 Da respectively, and up to two missed cleavages were allowed. Oxidation (M, +15.995 Da) was set as variable modification, and Carbamidomethylation (C, +57.021 Da) as fixed modification. Peptides and proteins were filtered with a false discovery rate at 1%. Label-free quantification was based on the extracted ion chromatography intensity of the peptides. All samples were measured in technical triplicates. The measured extracted ion chromatogram (XIC) intensities were normalized based on median intensities of the entire dataset to correct minor loading differences. […] The detection threshold for enriched proteins in AP-MS experiments were analyzed above twofold enrichment with <0.01 P value. […] In case only a specific isoform of the detected protein contains a PBM, the identified peptide fragments were manually checked to check which isoform(s) were most likely detected. […]

B1: E6: wild-type HPV16 E6 oncoprotein stably expressed in HEK293T cells (protein, UniProt P03126 1-158, looked up)
chain: MHQKRTAMFQDPQERPRKLPQLCTELQTTIHDIILECVYCKQQLLRREVYDFAFRDLCIVYRDGNPYAVCDKCLKFYSKISEYRHYCYSLYGTTLEQQYNKPLCDLLIRCINCQKPLCPEEKQRHLDKKQRFHNIRGRWTGRCMSCCRSSRTRRETQL
modifications: full-length
notes: wild-type HPV16 E6 oncoprotein stably expressed in HEK293T cells
**Q.** How did the “SCRIB relative protein level” value (SCRIB; replicate 1) turn out when B1 was run?
**A.** Its value is 0.8205.

**Q.** What about the “SCRIB relative protein level” value (SCRIB; replicate 2) of the same molecule?
**A.** The value was 0.6696.

**Q.** What about the “SCRIB relative protein level” value (SCRIB; replicate 3) of the same molecule?
**A.** Its value is 0.6225.

**Q.** What about the “decrease of SCRIB levels” value (SCRIB; western blot, GAPDH normalized, stable HEK293T cells compared to control cells, n = 3) of the same molecule?
**A.** The value was ~ 30%.

**Q.** What about the “DLG1 relative mRNA level” value (HEK293T cells [1]; replicate 1) of the same molecule?
**A.** The value was 1.01.

**Q.** And the “GFP relative mRNA level” value (HEK293T cells [1]; replicate 1)?
**A.** Its value is 0.3883.

**Q.** What about the “MAGI1 relative mRNA level” value (HEK293T cells [1]; replicate 1) of the same molecule?
**A.** Its value is 1.0722.

**Q.** And the “RPLP0 relative mRNA level” value (HEK293T cells [1]; replicate 1)?
**A.** The value was 0.9236.

**Q.** And the “SCRIB relative mRNA level” value (HEK293T cells [1]; replicate 1)?
**A.** The value was 0.9974.

**Q.** What about the “SNTB2 relative mRNA level” value (HEK293T cells [1]; replicate 1) of the same molecule?
**A.** The value was 1.021.

**Q.** And the “SNX27 relative mRNA level” value (HEK293T cells [1]; replicate 1)?
**A.** Its value is 1.06.

**Q.** What about the “SYNJ2BP relative mRNA level” value (HEK293T cells [1]; replicate 1) of the same molecule?
**A.** The value was 0.9318.

**Q.** What about the “TAX1BP3 relative mRNA level” value (HEK293T cells [1]; replicate 1) of the same molecule?
**A.** Its value is 0.9978.

**Q.** And the “p53 relative mRNA level” value (HEK293T cells [1]; replicate 1)?
**A.** Its value is 1.205.

**Q.** What about the “DLG1 relative mRNA level” value (HEK293T cells [1]; replicate 2) of the same molecule?
**A.** Its value is 0.9789.

**Q.** And the “GFP relative mRNA level” value (HEK293T cells [1]; replicate 2)?
**A.** The value was 0.361.

**Q.** And the “MAGI1 relative mRNA level” value (HEK293T cells [1]; replicate 2)?
**A.** The value was 1.194.

**Q.** And the “RPLP0 relative mRNA level” value (HEK293T cells [1]; replicate 2)?
**A.** Its value is 0.9077.

**Q.** And the “SCRIB relative mRNA level” value (HEK293T cells [1]; replicate 2)?
**A.** The value was 0.9906.

**Q.** What about the “SNTB2 relative mRNA level” value (HEK293T cells [1]; replicate 2) of the same molecule?
**A.** The value was 1.145.

**Q.** What about the “SNX27 relative mRNA level” value (HEK293T cells [1]; replicate 2) of the same molecule?
**A.** Its value is 1.0167.

**Q.** What about the “SYNJ2BP relative mRNA level” value (HEK293T cells [1]; replicate 2) of the same molecule?
**A.** Its value is 1.042.

**Q.** What about the “TAX1BP3 relative mRNA level” value (HEK293T cells [1]; replicate 2) of the same molecule?
**A.** The value was 1.009.

**Q.** What about the “p53 relative mRNA level” value (HEK293T cells [1]; replicate 2) of the same molecule?
**A.** The value was 1.147.

**Q.** What about the “DLG1 relative mRNA level” value (HEK293T cells [1]; replicate 3) of the same molecule?
**A.** The value was 0.8765.

**Q.** And the “GFP relative mRNA level” value (HEK293T cells [1]; replicate 3)?
**A.** The value was 0.3884.

**Q.** And the “MAGI1 relative mRNA level” value (HEK293T cells [1]; replicate 3)?
**A.** The value was 0.864.

**Q.** And the “RPLP0 relative mRNA level” value (HEK293T cells [1]; replicate 3)?
**A.** Its value is 1.0145.

**Q.** What about the “SCRIB relative mRNA level” value (HEK293T cells [1]; replicate 3) of the same molecule?
**A.** Its value is 0.879.

**Q.** And the “SNTB2 relative mRNA level” value (HEK293T cells [1]; replicate 3)?
**A.** The value was 0.9516.

**Q.** What about the “SNX27 relative mRNA level” value (HEK293T cells [1]; replicate 3) of the same molecule?
**A.** Its value is 0.8492.

**Q.** And the “SYNJ2BP relative mRNA level” value (HEK293T cells [1]; replicate 3)?
**A.** The value was 0.8794.

**Q.** And the “TAX1BP3 relative mRNA level” value (HEK293T cells [1]; replicate 3)?
**A.** Its value is 0.9092.

**Q.** What about the “p53 relative mRNA level” value (HEK293T cells [1]; replicate 3) of the same molecule?
**A.** The value was 0.9937.

**Q.** And the “HPV16 E6 relative mRNA level” value (HEK293T cells [1]; replicate 1)?
**A.** Its value is 0.5053.

**Q.** And the “HPV16 E6 relative mRNA level” value (HEK293T cells [1]; replicate 2)?
**A.** Its value is 0.4889.

**Q.** And the “HPV16 E6 relative mRNA level” value (HEK293T cells [1]; replicate 3)?
**A.** The value was 0.4569.

**Q.** What about the “E6AP relative protein level” value (HEK293T cells [2]; replicate 1) of the same molecule?
**A.** The value was 0.1109.

**Q.** What about the “MAGI1 relative protein level” value (HEK293T cells [2]; replicate 1) of the same molecule?
**A.** Its value is 1.104.

**Q.** What about the “SNX27 relative protein level” value (HEK293T cells [2]; replicate 1) of the same molecule?
**A.** Its value is 1.182.

**Q.** What about the “p53 relative protein level” value (HEK293T cells [2]; replicate 1) of the same molecule?
**A.** The value was 0.0349.

**Q.** What about the “E6AP relative protein level” value (HEK293T cells [2]; replicate 2) of the same molecule?
**A.** The value was 0.2467.

**Q.** What about the “MAGI1 relative protein level” value (HEK293T cells [2]; replicate 2) of the same molecule?
**A.** Its value is 0.7612.

**Q.** What about the “SNX27 relative protein level” value (HEK293T cells [2]; replicate 2) of the same molecule?
**A.** The value was 0.5109.

**Q.** What about the “p53 relative protein level” value (HEK293T cells [2]; replicate 2) of the same molecule?
**A.** Its value is 0.03479.

**Q.** And the “E6AP relative protein level” value (HEK293T cells [2]; replicate 3)?
**A.** The value was 0.1353.

**Q.** And the “MAGI1 relative protein level” value (HEK293T cells [2]; replicate 3)?
**A.** Its value is 0.6199.

**Q.** What about the “SNX27 relative protein level” value (HEK293T cells [2]; replicate 3) of the same molecule?
**A.** The value was 0.8346.

**Q.** And the “p53 relative protein level” value (HEK293T cells [2]; replicate 3)?
**A.** Its value is 0.01425.

**Q.** And the “p53 relative protein level” value (HEK293T cells [3]; replicate 1)?
**A.** The value was 0.1537.

**Q.** And the “p53 relative protein level” value (HEK293T cells [3]; replicate 2)?
**A.** Its value is 0.2546.

**Q.** What about the “p53 relative protein level” value (HEK293T cells [3]; replicate 3) of the same molecule?
**A.** The value was 0.1997.

**Q.** And the “AHNAK relative protein level” value (HEK293T cells [3]; replicate 1)?
**A.** Its value is 0.9544.

**Q.** And the “LIN7C relative protein level” value (HEK293T cells [3]; replicate 1)?
**A.** Its value is 0.7333.

**Q.** What about the “MPP6 relative protein level” value (HEK293T cells [3]; replicate 1) of the same molecule?
**A.** Its value is 0.8283.

**Q.** And the “SNX27 relative protein level” value (HEK293T cells [3]; replicate 1)?
**A.** The value was 0.8078.

**Q.** What about the “AHNAK relative protein level” value (HEK293T cells [3]; replicate 2) of the same molecule?
**A.** Its value is 0.9923.

**Q.** What about the “LIN7C relative protein level” value (HEK293T cells [3]; replicate 2) of the same molecule?
**A.** The value was 0.764.

**Q.** What about the “MPP6 relative protein level” value (HEK293T cells [3]; replicate 2) of the same molecule?
**A.** Its value is 0.8646.

**Q.** What about the “SNX27 relative protein level” value (HEK293T cells [3]; replicate 2) of the same molecule?
**A.** The value was 1.3738.

**Q.** And the “AHNAK relative protein level” value (HEK293T cells [3]; replicate 3)?
**A.** The value was 1.222.

**Q.** What about the “LIN7C relative protein level” value (HEK293T cells [3]; replicate 3) of the same molecule?
**A.** Its value is 1.025.

**Q.** And the “MPP6 relative protein level” value (HEK293T cells [3]; replicate 3)?
**A.** Its value is 0.4141.

**Q.** What about the “SNX27 relative protein level” value (HEK293T cells [3]; replicate 3) of the same molecule?
**A.** The value was 1.15.

**Q.** And the “change of HUWE1 concentration” value (HUWE1)?
**A.** Its value is “decreased by threefold”.
